Laboratory results: patent publication US20160122405A1, “HOMEODOMAIN FUSION PROTEINS AND USES THEREOF” (priority 2013, published 2016)
Substitutions are numbered along the chain they refer to. “Also recorded” adds a separate entry of the source. Like-named read-outs stand apart in the source and are kept apart here.

Columns and labels:
[1] = test system: Hoxa9-Meis1 immortalized AML model cells; assay: Growth deficit of construct-transduced AML cells versus non-transduced cells in same well; assay type: cell-based, murine; settings: for Activity: activity based upon growth deficit versus non-transduced cells in same well, constructs retrovirally transduced into AML cells
Sin3 = assay: method not stated
[2] = test system: Hoxa9-Meis1 murine AML cells; assay type: in vivo, mice; settings: for Median Survival days: mouse, in vivo; for AML latency in vivo: versus vector control
[3] = test system: differentiation-specific genes (S100A8, myeloperoxidase, neutrophil elastase); assay: QPCR of differentiation-specific genes in transduced Hoxa9-Meis1 cells; assay type: cell-based; settings: Hoxa9-Meis1 murine cells, versus vector control
[4] = test system: Mac-1 (CD11b), Gr-1 and FLT3R expression; assay: Flow cytometry of cell surface markers after transduction; assay type: cell-based, murine; settings: 30 days
[5] = test system: Hoxa9 target genes (SOX4, CD34, FLT3R, FOXP1, DNAJC10); assay: QPCR of direct Hoxa9 target genes in Hoxa9/Meis1 cells; settings: 17 days after transduction, versus GFP control
[6] = Hoxa9-Meis1 cells, retroviral expression
[7] = listed as 3X glycine linker repressor construct

S2 mutant: S2 with DNA base contact residues of HFP domain mutated to alanine, SEQ ID NO: 32 (DPERQVKAWFAARRAKMKKINGGDPVSQVSAWFGAKRIAYKKNI)
growth phenotype (growth deficit / growth inhibition) [1]: less growth inhibition

wild-type SID (Sin3-interacting domain of Mad1 protein) (from UniProt Q05195 5-29) (peptide)
Kd (Sin3): 70 nM

B1: S3: Full SID-3XNLS-HFP with GGG linker, SEQ ID NO: 30 / 35 (protein)
chain: MATAVGMNIQLLLEAADYLERREREAEHGYASMLPYDPKKKRKVDPKKKRKVDPKKKRKVGGDPERQVKIWFQNRRMKMKKINGGGDPVSQVSNWFGNKRIRYKKNIG
growth phenotype (growth deficit / growth inhibition) [1, 6]: more growth deficit | growth phenotype (growth deficit / growth inhibition) ([1]; Hoxa9-Meis1 cells, retroviral expression, listed as HFP): significant growth defects | Activity [1]: ✓ | HFP-expressing cells as % of the population ([1]; by day 8, IRES GFP vector, GFP vector control 80%): 2% | Median Survival days [2]: 94 days | AML latency in vivo [2]: longer latency in vivo that was statistically significant | AML latency in vivo ([2]; listed as HFP repressor): significantly longer latency | AML latency in vivo ([2]; listed as repressor): longer latency | mRNA levels of differentiation-specific genes [3]: higher mRNA levels | mRNA levels of differentiation-specific genes [3, 7]: mRNA upregulation of differentiation-specific genes | mRNA levels of differentiation-specific genes ([3]; listed as repressor): elevates differentiation-specific genes | cell-surface expression of myeloid differentiation markers Mac-1 and Gr-1 [4, 7]: increases in cell-surface expression of myeloid differentiation markers | surface expression of Flt3 receptor [4, 7]: decreased surface expression | cell-surface expression of myeloid differentiation markers Mac-1 and Gr-1 ([4]; listed as repressor HFP): increases expression of Gr-1 and Mac-1 differentiation markers | surface expression of Flt3 receptor ([4]; listed as repressor HFP): decreases expression of Flt3 receptor | transcripts of Hoxa9 target genes [5]: suppresses multiple targets of Hoxa9; also recorded: suppresses transcripts of Hoxa9 target genes | transcripts of Hoxa9 target genes [5, 7]: suppression of direct Hoxa9 transcriptional target genes

B2: S3 mutant: S3 with DNA base contact residues mutated to alanine, SEQ ID NO: 33 (HFP domain) / 46 (protein)
chain: B1 chain with I70A, Q73A, N74A, M77A, N94A, N98A, R102A
growth phenotype (growth deficit / growth inhibition) [1, 6]: less growth inhibition | transcripts of Hoxa9 target genes ([5]; listed as mutant construct): little to no repression

B3: Fusion protein 3: SID-3XNLS-HFP, SID of SEQ ID NO: 12, SEQ ID NO: 38 (protein)
chain: MVGMNIQLLLEAADYLERREREAEHGGDPKKKRKVDPKKKRKVDPKKKRKVGGDPERQVKIWFQNRRMKMKKINGGGDPVSQVSNWFGNKRIRYKKNIG
Activity [1]: ✓

B4: S2: SID-3XNLS-GG linker-HoxA9-GG-PBX fusion protein, SEQ ID NO: 29 (protein)
chain: MATAVGMNIQLLLEAADYLERREREAEHGYASMLPYDPKKKRKVDPKKKRKVDPKKKRKVGGDPERQVKIWFQNRRMKMKKINGGDPVSQVSNWFGNKRIRYKKNIG
growth phenotype (growth deficit / growth inhibition) [1, 6]: more growth deficit | Median Survival days [2]: 67 days

B5: Fusion protein 10: HFP-3XNLS-Full SID, SEQ ID NO: 45 (protein)
chain: DPERQVKIWFQNRRMKMKKINGGGDPVSQVSNWFGNKRIRYKKNIGGGDPKKKRKVDPKKKRKVDPKKKRKVATAVGMNIQLLLEAADYLERREREAEHGYASMLPY
Activity [1]: ✓

B6: Fusion protein 4: SID-3XNLS-HFP, SID of SEQ ID NO: 13, SEQ ID NO: 39 (protein)
chain: MVGMNIQLLLEAADYLERRERGGDPKKKRKVDPKKKRKVDPKKKRKVGGDPERQVKIWFQNRRMKMKKINGGGDPVSQVSNWFGNKRIRYKKNIG
Activity [1]: ✓

B7: S1: SID-3XNLS-GG linker-HoxA9-G-PBX fusion protein, SEQ ID NO: 28 (protein)
chain: MATAVGMNIQLLLEAADYLERREREAEHGYASMLPYDPKKKRKVDPKKKRKVDPKKKRKVGGDPERQVKIWFQNRRMKMKKINGDPVSQVSNWFGNKRIRYKKNIG
Median Survival days [2]: 62 days

B8: S4: SID-3XNLS-GG linker-HoxA9-GGGG-PBX fusion protein, SEQ ID NO: 31 (protein)
chain: MATAVGMNIQLLLEAADYLERREREAEHGYASMLPYDPKKKRKVDPKKKRKVDPKKKRKVGGDPERQVKIWFQNRRMKMKKINGGGGDPVSQVSNWFGNKRIRYKKNIG
Median Survival days [2]: 69 days
